Fusion protein concentration that promoted heterodimer formation (gel mobility shift) and native molecular weight data for two substances are collected here from patent US20050079543A1.

Assay [1] concerns the target Stat84, activated (from IFN-γ-treated C84 or Cmx cells) (human) (UniProt P42224). The assay is described as follows: cell-based or functional assay.
Assay [2] addresses Stat91L, activated (from IFN-γ-treated C91L or Cmx cells) (human) (UniProt P42224). In words: cell-based or functional assay.
Assay [3] addresses tyrosine phosphorylated Stat91 (human) (UniProt P42224). The assay is described as follows: glycerol gradient sedimentation.
For assay [4] the target is unchanged. The assay is described as follows: native gel electrophoresis, Ferguson plots.

Stat91L, activated (from IFN-γ-treated C91L or Cmx cells) (human), sequence (P42224 2-750, stated change not applied): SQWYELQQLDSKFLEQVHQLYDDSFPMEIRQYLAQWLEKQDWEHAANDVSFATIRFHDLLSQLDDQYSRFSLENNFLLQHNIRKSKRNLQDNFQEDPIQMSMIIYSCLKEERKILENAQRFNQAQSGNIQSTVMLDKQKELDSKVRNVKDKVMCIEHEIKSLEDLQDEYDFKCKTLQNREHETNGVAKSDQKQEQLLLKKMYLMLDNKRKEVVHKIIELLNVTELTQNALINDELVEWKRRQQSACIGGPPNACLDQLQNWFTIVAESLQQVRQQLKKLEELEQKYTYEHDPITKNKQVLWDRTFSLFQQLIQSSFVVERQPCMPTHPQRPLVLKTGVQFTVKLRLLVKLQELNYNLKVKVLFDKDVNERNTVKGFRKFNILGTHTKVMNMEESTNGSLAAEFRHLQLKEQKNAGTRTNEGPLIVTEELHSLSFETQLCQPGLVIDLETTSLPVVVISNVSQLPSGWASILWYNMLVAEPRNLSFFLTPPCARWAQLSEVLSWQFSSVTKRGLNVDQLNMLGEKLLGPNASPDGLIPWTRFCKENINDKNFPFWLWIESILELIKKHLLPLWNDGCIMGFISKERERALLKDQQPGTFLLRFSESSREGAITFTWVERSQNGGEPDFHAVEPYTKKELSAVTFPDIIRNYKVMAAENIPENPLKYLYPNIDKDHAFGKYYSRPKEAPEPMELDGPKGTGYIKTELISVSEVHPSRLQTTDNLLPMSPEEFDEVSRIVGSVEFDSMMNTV
Stat84, activated (from IFN-γ-treated C84 or Cmx cells) (human), sequence (P42224 2-712 limits assumed): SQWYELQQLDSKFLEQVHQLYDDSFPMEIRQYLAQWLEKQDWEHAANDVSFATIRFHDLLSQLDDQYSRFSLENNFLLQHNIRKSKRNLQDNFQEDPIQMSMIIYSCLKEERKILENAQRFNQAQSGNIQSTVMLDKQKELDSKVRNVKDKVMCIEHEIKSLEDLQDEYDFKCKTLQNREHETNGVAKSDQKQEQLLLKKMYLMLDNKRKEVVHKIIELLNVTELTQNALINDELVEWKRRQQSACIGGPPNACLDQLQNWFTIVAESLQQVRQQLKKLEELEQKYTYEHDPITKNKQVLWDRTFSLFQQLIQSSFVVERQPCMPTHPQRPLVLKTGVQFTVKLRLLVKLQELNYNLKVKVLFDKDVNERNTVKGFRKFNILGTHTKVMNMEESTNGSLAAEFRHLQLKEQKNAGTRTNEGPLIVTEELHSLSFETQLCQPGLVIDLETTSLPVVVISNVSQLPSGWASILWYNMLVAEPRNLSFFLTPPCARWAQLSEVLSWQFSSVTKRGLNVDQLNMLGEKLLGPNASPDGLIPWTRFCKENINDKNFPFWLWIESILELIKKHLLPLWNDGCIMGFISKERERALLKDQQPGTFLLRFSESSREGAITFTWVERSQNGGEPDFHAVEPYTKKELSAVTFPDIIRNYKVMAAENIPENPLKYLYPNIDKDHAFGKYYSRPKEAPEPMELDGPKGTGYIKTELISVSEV

Take “GST-91SH2 (glutathione-S-transferase fused to the Stat91 SH2 domain, amino acids 573 to 672) (from UniProt P42224 573-672)”: the fusion protein concentration that promoted heterodimer formation (gel mobility shift) in assay [1] and in assay [2] was 0.5 to 5 µM in each case.

For the substance “tyrosine phosphorylated Stat91 (from UniProt P42224 2-750)”, the native molecular weight in assay [3] and in assay [4] was 180 kD in each case.
